What was measured:
[1] = system: X. oryzae and X. oryzicola; type: in vivo; conditions: transgenic rice, pIPG787
[2] = system: R. solanacearum strain Rsp446; type: in vivo, Ralstonia solanacearum; conditions: seeded T1 tobacco, three experiments each, 60 days

B1: BombBC: Bacteriophage Outer Membrane Breaching protein of Xanthomonas phage P15 (Xp15) ORF BC, 17.9 kD, SEQ ID NO. 17 (protein, listed as Xanthomonas campestris)
chain: MSDQTDTTQTTPAEKAPPKEIIRGRMPIAVVALARFGSQSTTTTKAAADALGTTVGKIDDIRKNRNFAYVTADFKPTEAQKADGIEWLKRHPVGADALIEELQNLPVATAEESAAFEQVRASARGQNAKTAEGEVAQAGGGNRRKKKEKPAEAGEVQNPPAADGDSLLS
- resistance to Gram-negative bacterial pathogens [1]: will be resistant
- resistance conferred to transgenic tobacco [2]: strong resistance
